The text below walks through data of patent US20100092954A1, “Method for Determining the Genetic Basis for Physiological Changes in Organisms” (priority 2006, published 2010).

The data set relates to glycerol kinase (glpK). The data set can be described thus: Biochemical measurements of mutant glycerol kinase (partially purified protein): reaction rate and inhibition by FBP. More on the design: species or system Escherichia coli. The note with it: partially purified protein from cells expressing the enzyme. An excerpt:
All clones had mutations in the gene for glycerol kinase (glpK), which catalyzes the first step in glycerol catabolism. This protein is subject to inhibition by fructose-1,6-bisphosphate (FBP) and phosphorylated enzyme IIA^Glc. […] Since all glycerol-adapted populations have mutations in glpK, rapid growth on glycerol can be partially attributed to altered kinetic and regulatory properties of glycerol kinase. Evidently the rate of glycerol phosphorylation catalyzed by GlpK is rate-limiting to the growth of WT E. coli MG 1655. The glycerol catabolic pathway generates the glycolytic intermediate dihydroxyacetone phosphate, which can be converted to methylglyoxal, a toxic metabolite when present at high concentrations. It is noteworthy that no mutations were detected in any genes relating to methylglyoxal metabolism.

B1: WT: wild-type E. coli MG1655 glycerol kinase (GlpK) (protein, UniProt P0A6F3 2-502, looked up)
Glycerol kinase: TEKKYIVALDQGTTSSRAVVMDHDANIISVSQREFEQIYPKPGWVEHDPMEIWATQSSTLVEVLAKADISSDQIAAIGITNQRETTIVWEKETGKPIYNAIVWQCRRTAEICEHLKRDGLEDYIRSNTGLVIDPYFSGTKVKWILDHVEGSRERARRGELLFGTVDTWLIWKMTQGRVHVTDYTNASRTMLFNIHTLDWDDKMLEVLDIPREMLPEVRRSSEVYGQTNIGGKGGTRIPISGIAGDQQAALFGQLCVKEGMAKNTYGTGCFMLMNTGEKAVKSENGLLTTIACGPTGEVNYALEGAVFMAGASIQWLRDEMKLINDAYDSEYFATKVQNTNGVYVVPAFTGLGAPYWDPYARGAIFGLTRGVNANHIIRATLESIAYQTRDVLEAMQADSGIRLHALRVDGGAVANNFLMQFQSDILGTRVERPEVREVTALGAAYLAGLAVGFWQNLDELQEKAVIEREFRPGIETTERNYRYAGWKKAVKRAMAWEEHDE
As for B1, the Vmax was found to be 15.8 μmol glycerol/min/mg.
